The values that follow come from article PMC2192215 (The Journal of Experimental Medicine, 1995).

One test deals with T1, I-Au molecule (Mus musculus, UniProt P06344+P14438).
T1 sequence (P06344 whole entry, looked up): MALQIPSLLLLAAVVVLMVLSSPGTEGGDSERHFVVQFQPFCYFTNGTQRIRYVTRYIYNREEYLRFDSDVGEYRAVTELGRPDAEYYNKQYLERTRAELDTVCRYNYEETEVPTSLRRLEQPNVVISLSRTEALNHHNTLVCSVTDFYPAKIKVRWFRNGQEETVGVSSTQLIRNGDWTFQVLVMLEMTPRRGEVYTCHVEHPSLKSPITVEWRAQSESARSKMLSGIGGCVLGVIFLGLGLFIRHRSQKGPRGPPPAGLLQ
T1 sequence (P14438 whole entry, looked up): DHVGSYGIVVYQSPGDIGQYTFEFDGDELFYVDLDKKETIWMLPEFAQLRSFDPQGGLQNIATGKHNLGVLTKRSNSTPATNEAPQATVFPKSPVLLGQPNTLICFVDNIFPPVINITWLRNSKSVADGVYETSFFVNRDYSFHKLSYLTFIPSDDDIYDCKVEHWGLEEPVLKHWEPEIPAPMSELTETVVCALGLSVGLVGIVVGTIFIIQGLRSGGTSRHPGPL
To be noted: cited from earlier work.

For test [1] the following is noted: cited from earlier work.
For a further test, the system named is Seu.5 T cells. Briefly: T cell hybridoma assay: IL-2 production by Seu.5 T cells. It counts as cell-based, A/J mice. The settings on record: APC pulsed with the peptide, tissue culture assay; data not shown.
The test system of a further test is A/J mice. In words: Induction and quantitation of autoimmune myocarditis in A/J mice. In kind it is in vivo. To be noted: experiment 1; 100 μg myosin or 100 nmol peptide; H&E cross-sections, day 21.
Test [2] has as its target purified I-Ak molecules (mouse). In words: radioligand binding.
Test [3] addresses I-Ak molecules on the surface of I-Ak-expressing M12.C3.F6 B-lymphoma cells (mouse). Briefly: SDS/PAGE stability assay.

“Also recorded” adds a separate entry of the source. Ends that are not written are not given here.

For the molecule “MBP(Ac1-11): myelin basic protein epitope (Ac-MGNHSGKRELS; UniProt P04370 1-11, looked up, fragment)”, the “binding to I-Au” value with I-Au molecule is given as “bound very weakly”. Moreover, the “induction of experimental autoimmune encephalomyelitis” value in test [1] was “could strongly induce experimental autoimmune”. Take SAFDVLSFTAEEKA [myhc0~(335-348)]: the “stimulation of Seu.5 T cells by peptide-pulsed APC” value in the test on Seu.5 T cells is recorded as “strongly stimulated”. Regarding DSAFDVLSFTAEEKAGVYK [myhca(334-352)], the “severity of myocarditis in photomicrographs (Fig. 4 B)” value in the test with A/J mice is “Moderate; also recorded: Severe”. YEDYGILQINSR [HEL(YE52-61), unlabeled]: the relative IC50 (relative to unlabeled HEL(YE52-61)) in test [2] is 1. The molecule DSAFDVLSFTAEEKAGVYK [myhc alpha(334-352) peptide, unlabeled] had a relative IC50 (relative to unlabeled HEL(YE52-61)) in test [2] of 15.6. In turn, DGSTDYGILQINSR (also: 125I-labeled, residue not given here) [125I-labeled HEL(48-61)] returned a percent SDS-stable I-Ak in test [3] of 96%. Molecule YEDYGILQINSR (also: 125I-labeled, residue not given here) [125I-labeled HEL(YE52-61)] came in with a maximum binding in the absence of competitors in test [2] of 148000 cpm. The molecule DSAFDVLSFTAEEKAGVYK (not fully specified; also: radiolabel on Tyr, isotope not given here) [myhc alpha(334-352) peptide, radiolabeled] displayed a percent SDS-stable I-Ak in test [3] of 50%. The molecule VNTFVHESLADVQA [bovine RNase(43-56)] registered a relative IC50 (relative to unlabeled HEL(YE52-61)) in test [2] of 33.3.
